Laboratory results as given in patent US20250145694A1 (GUANGDONG FEIPENG BIOLOGICAL, published 2025).
Residue numbers refer to the chain shown, from its start.

Assays:
[1] = target: T1, CTNI quality control recombinant antigen (human, UniProt P19429 1-210, limits assumed); test: indirect ELISA, cTnI coated 1 ug/ml, antibody 12.346 ng/ml
T1 construct: Recombinant antigen produced by the applicant; also called CTNI quality control recombinant protein (antigen produced by the company); cardiac troponin I
T1 sequence (P19429 whole entry): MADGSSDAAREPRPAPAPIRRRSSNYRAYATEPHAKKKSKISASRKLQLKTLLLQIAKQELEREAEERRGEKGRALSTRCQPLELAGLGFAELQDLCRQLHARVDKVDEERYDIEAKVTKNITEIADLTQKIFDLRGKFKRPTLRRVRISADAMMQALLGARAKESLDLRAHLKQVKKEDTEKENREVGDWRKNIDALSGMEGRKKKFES
Procedure: (§1) CTNI quality control recombinant antigen was diluted to 1 μg/ml with a coating solution and coated a microplate, 100 μL per well, overnight at 4° C.; on the next day, the microplate was washed with a washing solution twice and patted dry; a blocking solution (20% of BSA+80% of PBS) was added, 120 μL per well, 37° C., 1 h, patted dry; the diluted cTnI monoclonal antibodies were added, 100 μL/well, 37° C., 30 min; the microplate was washed with a washing solution 5 times, patted dry; goat anti-mouse IgG-HRP, 100 μL per well, 37° C., 30 min; the microplate was washed with a washing solution 5 times, patted dry; a color-developing solution A (50 μL/well) was added, a color-developing solution B (50 μL/well) was added, 10 min; a stop solution was added, 50 μL/well; OD values were read on microplate reader at 450 nm (reference, 630 nm).

[2] = target: T1, CTNI quality control recombinant antigen; test: indirect ELISA, cTnI coated 1 ug/ml, antibody 0.457 ng/ml
Procedure: as §1

[3] = target: T1, CTNI quality control recombinant antigen; test: BLI, antibody on AMC sensor, cTnI in solution
Procedure: With an AMC sensor, the purified antibody was diluted to 10 μg/ml with PBST, and CTNI quality control recombinant protein (antigen produced by the company) was gradient diluted with PBST to 769.2 nmol/ml, 384.6 nmol/ml, 192.3 nmol/ml, 96.2 nmol/ml, 48.1 nmol/ml, 24 nmol/ml, 12 nmol/ml, and 0 nmol/ml.

[4] = target: T1, CTNI quality control recombinant antigen; test: indirect ELISA, cTnI coated 1 ug/ml, antibody 1.372 ng/ml
Procedure: as §1

[5] = target: T1, CTNI quality control recombinant antigen; test: indirect ELISA, cTnI coated 1 ug/ml, antibody 0.051 ng/ml
Procedure: as §1

[6] = target: T1, CTNI quality control recombinant antigen; test: indirect ELISA, cTnI coated 1 ug/ml, antibody 0.152 ng/ml
Procedure: as §1

[7] = target: T1, CTNI quality control recombinant antigen; test: indirect ELISA, cTnI coated 1 ug/ml, antibody 4.115 ng/ml
Procedure: as §1

[8] = target: T1, CTNI quality control recombinant antigen; test: indirect ELISA, cTnI coated 1 ug/ml, antibody 0 ng/ml (blank)
Procedure: as §1

B1: Anti-cTnI 8C4 recombinant antibody (WT) (antibody, mouse IgG1, kappa)
heavy: EVQMVESGGGLLKPGGSLKLSCAASGFTYSNYAMSWVRQTPEKRLEWVATISTGGSYSYYPDSVKGRFTISRDNAKNTLYLQMLSLRSEDTAMYYCARKDNYYGSTFMDYWGQGSSVTVSSAKTTPPSVYPLAPGSAAQTNSMVTLGCLVKGYFPEPVTVTWNSGSLSSGVHTFPAVLQSDLYTLSSSVTVPSSTWPSQTVTCNVAHPASSTKVDKKIVPRDCGCKPCICTVPEVSSVFIFPPKPKDVLTITLTPKVTCVVVDISKDDPEVQFSWFVDDVEVHTAQTKPREEQFNSTFRSVSELPIMHQDWLNGKEFKCRVNSAAFPAPIEKTISKTKGRPKAPQVYTIPPPKEQMAKDKVSLTCMITNFFPEDITVEWQWNGQPAENYKNTQPIMDTDGSYFVYSKLNVQKSNWEAGNTFTCSVLHEGLHNHHTEKSLSHSPG
light: DIQMTQTSSSLSASLGDRVTISCRASQDITQYLNWYQQKPDGTIKLLIYYSSRIHSGVSSRFSGSGSGTDYSLTISNLEQEDIATYFCQQGNTIPLTFDTGTKLELKRADAAPTVSIFPPSSEQLTSGGASVVCFLNNFYPKDINVKWKIDGSERQNGVLNSWTDQDSKDSTYSMSSTLTLTKDEYERHNSYTCEATHKTSTSPIVKSFNRNEC
notes: Mouse antibody expressed in CHO cells; also called CTNI 8C4 antibody
OD450 (reference 630 nm) [1]: 1.18 OD | OD450 (reference 630 nm) [2]: 0.086 OD | Kd [3]: 21.6 nM | koff [3]: 0.000169 s⁻¹ | kon [3]: 7830 M⁻¹ s⁻¹ | OD450 (reference 630 nm) [4]: 0.194 OD | OD450 (reference 630 nm) [5]: 0.04 OD | OD450 (reference 630 nm) [6]: 0.053 OD | OD450 (reference 630 nm) [7]: 0.435 OD | OD450 (reference 630 nm) [8]: 0.031 OD

B2: Mutation 1 (antibody)
heavy: B1 heavy with T53S, K99R
light: B1 light with Q31N, S51T
OD450 (reference 630 nm) [1]: 2.02 OD | OD450 (reference 630 nm) [2]: 0.307 OD | Kd [3]: 7.04 nM | koff [3]: 0.000583 s⁻¹ | kon [3]: 82800 M⁻¹ s⁻¹ | OD450 (reference 630 nm) [4]: 0.785 OD | OD450 (reference 630 nm) [5]: 0.088 OD | OD450 (reference 630 nm) [6]: 0.129 OD | OD450 (reference 630 nm) [7]: 1.6 OD | OD450 (reference 630 nm) [8]: 0.039 OD

B3: Mutation 5 (antibody)
heavy: B1 heavy with K99R
light: B1 light
notes: light chain unchanged from WT; heavy chain assembled FR/CDR/constant
OD450 (reference 630 nm) [1]: 1.32 OD | OD450 (reference 630 nm) [2]: 0.098 OD | OD450 (reference 630 nm) [4]: 0.214 OD | OD450 (reference 630 nm) [5]: 0.054 OD | OD450 (reference 630 nm) [6]: 0.072 OD | OD450 (reference 630 nm) [7]: 0.569 OD | OD450 (reference 630 nm) [8]: 0.03 OD
